Series [1] deals with MPP5 (histidine-tagged modified proaerolysin with a PSA cleavage site).
In series [2] the test system is wild-type proaerolysin from Aeromonas hydrophila.
The test system of series [3] is MPP1 (proaerolysin with the furin site replaced by the PSA substrate HSSKLQ).

Sequence of MMP-7 (P09237 95-267): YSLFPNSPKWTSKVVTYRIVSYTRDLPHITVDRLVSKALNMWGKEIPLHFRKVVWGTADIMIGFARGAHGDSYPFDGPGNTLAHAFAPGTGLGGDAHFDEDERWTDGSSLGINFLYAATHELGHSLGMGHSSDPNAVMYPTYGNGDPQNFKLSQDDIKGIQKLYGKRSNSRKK

In series [1], Cathepsin B (cysteine protease) yielded an Amount Required for 50% Cleavage of MPP5 of 170 units and a Specific Activity Towards MPP5 of 1.2 fmol/µg/min. In series [2], this substance gave an Amount Required for 50% Cleavage of Native Proaerolysin of 51.6 units and a Specific Activity Towards Proaerolysin of 3.9 fmol/µg/min.

In series [1], Chymotrypsin returned an Amount Required for 50% Cleavage of MPP5 of 31 µg and a Specific Activity Towards MPP5 of 150 nM/µg/min. For the same substance, in series [2], the Amount Required for 50% Cleavage of Native Proaerolysin was found to be 3 µg and the Specific Activity Towards Proaerolysin stood at 1550 nM/µg/min.

“Prostate-specific antigen (PSA), also referred as hK3”: in series [1], the Amount Required for 50% Cleavage of MPP5 is 12.2 µg and the Specific Activity Towards MPP5 amounted to 0.0635 nM/µg/min. In series [2], this substance showed an Amount Required for 50% Cleavage of Native Proaerolysin of 49.7 µg and a Specific Activity Towards Proaerolysin of 0.0156 nM/µg/min. Moreover, in series [3], the “hemolysis (ratio to Triton control), MPP1 10^-8 M pre-incubated with PSA in buffer” value is recorded as “about 45% hemolysis” and the “hemolysis, MPP1 in human plasma or plasma spiked with PSA (10,000 ng/ml)” value was “no appreciable hemolysis (i.e. <1% of Triton control”.

In series [1], uPA yielded an Amount Required for 50% Cleavage of MPP5 of 173 µg and a Specific Activity Towards MPP5 of 1.1 fmol/µg/min. For the same substance, in series [2], the Amount Required for 50% Cleavage of Native Proaerolysin stood at 7.79 µg and the Specific Activity Towards Proaerolysin came out at 25.8 fmol/µg/min.

With hK2 (human glandular kallikrein 2), in series [1], the “Amount Required for 50% Cleavage of MPP5” value is listed as “Inactive” and the Specific Activity Towards MPP5 was 0. Also, the Specific Activity Towards Proaerolysin in series [2] was 1610 fmol/µg/min.

With MMP-7, in series [1], the “Amount Required for 50% Cleavage of MPP5” value was “Inactive” and the Specific Activity Towards MPP5 came to 0. For the same substance, in series [2], the “Amount Required for 50% Cleavage of Native Proaerolysin” value is reported as “Inactive” and the Specific Activity Towards Proaerolysin worked out at 0.

As for Trypsin (Type I trypsin), in series [1], the Amount Required for 50% Cleavage of MPP5 was 0.813 µg and the Specific Activity Towards MPP5 was determined as 5700 nM/µg/min. For the same substance, in series [2], the Amount Required for 50% Cleavage of Native Proaerolysin came out at 0.0095 µg and the Specific Activity Towards Proaerolysin amounted to 489000 nM/µg/min.

For Furin, in series [1], the Amount Required for 50% Cleavage of MPP5 is above 0.0032 µg and the Specific Activity Towards MPP5 stood at 0.24 nM/µg/min. For the same substance, in series [2], the Amount Required for 50% Cleavage of Native Proaerolysin is 0.0012 µg and the Specific Activity Towards Proaerolysin was found to be 9.69 nM/µg/min.

In series [1], Thrombin gave an Amount Required for 50% Cleavage of MPP5 above 12 µg and a Specific Activity Towards MPP5 below 7.8e-07 nM/µg/min. In series [2], this substance showed an Amount Required for 50% Cleavage of Native Proaerolysin above 12 µg and a Specific Activity Towards Proaerolysin below 7.8e-07 nM/µg/min.

Regarding hK1 (activated by thermolysin), in series [1], the “Amount Required for 50% Cleavage of MPP5” value is given as “Inactive” and the Specific Activity Towards MPP5 turned out to be 0. In series [2], this substance displayed an Amount Required for 50% Cleavage of Native Proaerolysin of 2.63 µg and a Specific Activity Towards Proaerolysin of 15.3 fmol/µg/min.

For the origin of these results see US20100233191.
